For test [1], the target named is T1, IGF-1R(1340-1366)[1346-pTyr]amid (phosphotyrosine at 1346; C-terminal amide).
T1 construct: Used as the analyte free in solution; also called pIGF-1R peptide (free in solution); phosphorylated IGF-1R peptide
T1 peptide: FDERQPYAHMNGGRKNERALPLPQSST
In words: SPR (BIAcore 3000), ss-FABs hybridized on biotinylated T40-Bi linker on SA chip, peptide in solution; T40-Bi linker (linker 10). Background: Surface plasmon resonance follows binding to a sensor surface in real time, without labels.

For test [2], the target named is T2, IGF-1R(1340-1366)amid (C-terminal amide).
T2 construct: Used as the analyte free in solution; also called IGF-1R peptide (free in solution); non-phosphorylated IGF-1R peptide
T2 peptide: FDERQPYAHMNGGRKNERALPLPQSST
The test can be described thus: SPR (BIAcore 3000, SA sensor, 25 C): ss-FABs hybridized on the surface-captured biotinylated T40-Bi ss-DNA linker; peptide as analyte in solution. The text has this:
(§1) FIG. 17 Schematic drawing of the BIAcore assay, presenting the complex s on the sensor surface. On Flow Cell 1 (=FC1) (not shown) amino-PEO-biotin was captured. On FC2, FC3 and FC4 bivalent binding agents with increasing linker length were immobilized. Analyte 1: IGF-1R-peptide containing the M-1.4.168 ss-FAB epitope (thin line)-the M-8.1.2 ss-FAB phospho-epitope is not present, because this peptide is not phosphorylated; analyte 2: pIGF-1R peptide containing the M-8.1.2 ss-FAB phospho-epitope (P) and the M-1.4.168 ss-FAB epitope (thin line). Analyte 3: pINR peptide, containing the cross reacting M-8.1.2 ss-FAB phospho-epitope, but not the epitope for M-1.4.168.
(§2) The dissociation was monitored at 50 μl/min for 5.3 min. The system was regenerated after each concentration step with a 12 sec pulse of 250 mM NaOH and was reloaded with ss-FAB ligand.

Test [3] has as its target T1, IGF-1R(1340-1366)[1346-pTyr]amid. The description is as above.
Text: as §1, §2

Test [4] has as its target T3, INR(1355-1382)[1361-pTyr]amid (human, phosphotyrosine at 1361; C-terminal amide).
T3 construct: Used as the analyte free in solution; also called pINR peptide; phosphorylated insulin receptor peptide (free in solution)
T3 peptide: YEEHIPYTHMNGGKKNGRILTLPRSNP
In words: SPR (BIAcore 3000, SA sensor, 25 C): single ss-FAB hybridized on the surface-captured biotinylated T40-Bi ss-DNA linker; peptide as analyte in solution.

Test [5] has as its target T2, IGF-1R(1340-1366)amid. In words: SPR (BIAcore 3000, SA sensor, 25 C): ss-FABs hybridized on the surface-captured biotinylated T0-Bi ss-DNA linker; peptide as analyte in solution.
The target in test [6] is T1, IGF-1R(1340-1366)[1346-pTyr]amid. The test is described as above.
Test [7] has the same target. The test can be described thus: SPR (BIAcore 3000), ss-FABs hybridized on biotinylated T0 linker on SA chip, peptide in solution; T0 linker (no spacer; linker 16 as printed).

The record followed here is patent US20150232560A1 (Hoffmann-La Roche, published 2015).

“And” between values parts separate entries of the source, which are not always exact repeats. Identical values can stand only once.

B1: T40 dual binding agent: ss-FAB 8.1.2 and ss-FAB 1.4.168 on the biotinylated T40-Bi 77-mer ss-DNA-Linker (linker 10) (bispecific antibody, V domains shown)
VH 1: QCDVKLVESGGGLVKPGGSLKLSCAASGFTFSDYPMSWVRQTPEKRLEWVATITTGGTYTYYPDSIKGRFTISRDNAKNTLYLQMGSLQSEDAAMYYCTRVKTDLWWGLAYWGQGTLVTVSA
VL 1: QLVLTQSSSASFSLGASAKLTCTLSSQHSTYTIEWYQQQPLKPPKYVMELKKDGSHTTGDGIPDRFSGSSSGADRYLSISNIQPEDESIYICGVGDTIKEQFVYVFGGGTKVTVLG
VH 2: EVQLQQSGPALVKPGASVKMSCKASGFTFTSYVIHWVKQKPGQGLEWIGYLNPYNDNTKYNEKFKGKATLTSDRSSSTVYMEFSSLTSEDSAVYFCARRGIYAYDHYFDYWGQGTSLTVSS
VL 2: QIVLTQSPAIMSASPGEKVTLTCSASSSVNYMYWYQQKPGSSPRLLIYDTSNLASGVPVRFSGSGSVTSYSLTISRMEAEDAATYYCQQWSTYPLTFGAGTKLELK
modifications: ss-DNA on a hinge cysteine
notes: Assembled on the SA chip on the biotinylated linker T20-(Biotin-dT)-T20; also called T40-bi complex
The term Kd denotes the free concentration of one partner at which half of the binding sites on the other are occupied at equilibrium, for simple one-to-one binding. B1: the Kd in test [1] is 0.01 nM; with IGF-1R(1340-1366)amid [2], 0.973 nM and 1 nM; in test [3], 0.0125 nM. Further, the t1/2 diss with IGF-1R(1340-1366)amid [2] turned out to be 4.3 min.

B2: ss-FAB' 1.4.168 (Fab, V domains shown)
VH: DVKLVESGGGLVKPGGSLKLSCAASGFTFSDYPMSWVRQTPEKRLEWVATITTGGTYTYYPDSIKGRFTISRDNAKNTLYLQMGSLQSEDAAMYYCTRVKTDLWWGLAYWGQGTLVTVSA
VL: B1 VL 1
modifications: 17mer ss-DNA comprising SEQ ID NO: 05 with fluorescein, coupled via maleimide to a cysteine of the FAB' hinge region
notes: FAB' made from the murine monoclonal antibody M-1.4.168 by pepsin cleavage and cysteamine reduction; the constant parts are not; also called ss-FAB 1.004.168; fluorescein-ss-FAB' 1.4.168
On to B2, for which, in test [4], the binding result is given as “no binding”.

B3: T0 dual binding agent: ss-FAB 8.1.2 and ss-FAB 1.4.168 on the biotinylated T0-Bi 37-mer ss-DNA-Linker (linker 17) (bispecific antibody, V domains shown)
VH 1: B1 VH 1
VL 1: B1 VL 1
VH 2: B1 VH 2
VL 2: B1 VL 2
modifications: ss-DNA on a hinge cysteine
notes: The protein parts are the same in both cases
Take B3: the Kd with IGF-1R(1340-1366)amid [5] was 1.2 nM and 1 nM; in test [6], 0.0344 nM; in test [7], 0.03 nM. For the same molecule, the t1/2 diss in the test with IGF-1R(1340-1366)amid [5] came to 5 min.
